Experimental data published in article PMC7866087, “Evaluation of Computationally Designed Peptides against TWEAK, a Cytokine of the Tumour Necrosis Factor Ligand Family” (International Journal of Molecular Sciences, 2021).

Tested on: TWEAK-Fn14 signalling pathway, BRV5 cells
Assay: Cell-based screening of individual peptides, gene expression microarray in TWEAK-stimulated BRV5 cells
Design: species or system human
Conditions: for BIRC2 expression Z-Score / HSP90B1 expression Z-Score / IL6 expression Z-Score / JUN expression Z-Score / MAP4K4 expression Z-Score / MAPK14 expression Z-Score / NFKB2 expression Z-Score / TNFRSF12A expression Z-Score / TRAF2 expression Z-Score: normalized to NARS2
Outline: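 Serum-starved BRV5 cells were treated with individual peptides at 450 µM, given once or re-dosed hourly, every two hours or every three hours, with or without TWEAK at 25 ng/mL. RNA was harvested after 6 h, and expression of TWEAK-Fn14 downstream genes plus two housekeeping genes was quantified by Fluidigm EvaGreen qPCR as Ct and delta Ct values.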

[1] = TWEAK control T, BRV5, 6 h, replicate column 3
[2] = TWEAK control T, BRV5, 6 h, replicate column 4
[3] = individual peptides, BRV5 + TWEAK, 450 µM, 6 h, mean of replicate columns
[4] = individual peptides, BRV5 + TWEAK, 450 µM, 6 h, replicate column 1
[5] = individual peptides, BRV5 + TWEAK, 450 µM, 6 h, replicate column 2
[6] = individual peptides, BRV5 + TWEAK, 6 h
[7] = individual peptides, BRV5 + TWEAK, 6 h, listed as T

B1: tumour necrosis factor-like weak inducer of apoptosis (protein, UniProt O43508 94-249, looked up)
Tumor necrosis factor ligand …: SAPKGRKTRARRAIAAHYEVHPRPGQDGAQAGVDGTVSGWEEARINSSSPLRYNRQIGEFIVTRAGLYYLYCQVHFDEGKAVYLKLDLLVDGVLALRCLEEFSATAASSLGPQLRLCQVSGLLALRPGSSLRIRTLPWAHLKAAPFLTYFGLFQVH
BIRC2 mRNA expression (normalized to NARS2) [1]: 1.027
HSP90B1 mRNA expression (normalized to NARS2) [1]: 3.037
JUN mRNA expression (normalized to NARS2) [1]: 0.03535
MAP4K4 mRNA expression (normalized to NARS2) [1]: 0.2587
MAPK14 mRNA expression (normalized to NARS2) [1]: 0.3748
NFKB2 mRNA expression (normalized to NARS2) [1]: 0.06251
TNFRSF12A mRNA expression (normalized to NARS2) [1]: 0.03969
TRAF2 mRNA expression (normalized to NARS2) [1]: 0.07995
BIRC2 mRNA expression (normalized to NARS2) [2]: 1.011
HSP90B1 mRNA expression (normalized to NARS2) [2]: 2.84
JUN mRNA expression (normalized to NARS2) [2]: 0.03216
MAP4K4 mRNA expression (normalized to NARS2) [2]: 0.2342
MAPK14 mRNA expression (normalized to NARS2) [2]: 0.332
NFKB2 mRNA expression (normalized to NARS2) [2]: 0.06133
TNFRSF12A mRNA expression (normalized to NARS2) [2]: 0.03763
TRAF2 mRNA expression (normalized to NARS2) [2]: 0.08704
BIRC2 mRNA expression (normalized to NARS2) [3]: 0.9889
HSP90B1 mRNA expression (normalized to NARS2) [3]: 2.734
IL6 mRNA expression (normalized to NARS2) [3]: 0.00008785
JUN mRNA expression (normalized to NARS2) [3]: 0.02837
MAP4K4 mRNA expression (normalized to NARS2) [3]: 0.2098
MAPK14 mRNA expression (normalized to NARS2) [3]: 0.3339
NFKB2 mRNA expression (normalized to NARS2) [3]: 0.05526
TNFRSF12A mRNA expression (normalized to NARS2) [3]: 0.03637
TRAF2 mRNA expression (normalized to NARS2) [3]: 0.06681
BIRC2 mRNA expression (normalized to NARS2) [4]: 0.9782
HSP90B1 mRNA expression (normalized to NARS2) [4]: 2.649
IL6 mRNA expression (normalized to NARS2) [4]: 0.0001501
JUN mRNA expression (normalized to NARS2) [4]: 0.02253
MAP4K4 mRNA expression (normalized to NARS2) [4]: 0.1844
MAPK14 mRNA expression (normalized to NARS2) [4]: 0.3328
NFKB2 mRNA expression (normalized to NARS2) [4]: 0.05313
TNFRSF12A mRNA expression (normalized to NARS2) [4]: 0.03435
TRAF2 mRNA expression (normalized to NARS2) [4]: 0.05236
BIRC2 mRNA expression (normalized to NARS2) [5]: 0.9396
HSP90B1 mRNA expression (normalized to NARS2) [5]: 2.412
IL6 mRNA expression (normalized to NARS2) [5]: 0.00002557
JUN mRNA expression (normalized to NARS2) [5]: 0.02345
MAP4K4 mRNA expression (normalized to NARS2) [5]: 0.162
MAPK14 mRNA expression (normalized to NARS2) [5]: 0.2958
NFKB2 mRNA expression (normalized to NARS2) [5]: 0.04407
TNFRSF12A mRNA expression (normalized to NARS2) [5]: 0.03379
TRAF2 mRNA expression (normalized to NARS2) [5]: 0.04788
BIRC2 expression Z-Score [6]: 2.98
HSP90B1 expression Z-Score [6]: 0.8798
IL6 expression Z-Score [6]: -1.558
JUN expression Z-Score [6]: -0.7938
MAP4K4 expression Z-Score [6]: 0.6195
MAPK14 expression Z-Score [6]: 2.332
NFKB2 expression Z-Score [6]: 1.408
TNFRSF12A expression Z-Score [6]: 1.8
TRAF2 expression Z-Score [6]: 2.292
BIRC2 expression Z-Score [7]: 2.9803
HSP90B1 expression Z-Score [7]: 0.8798
IL6 expression Z-Score [7]: -1.5585
JUN expression Z-Score [7]: -0.7938
MAP4K4 expression Z-Score [7]: 0.6195
MAPK14 expression Z-Score [7]: 2.3319
NFKB2 expression Z-Score [7]: 1.4080
TNFRSF12A expression Z-Score [7]: 1.8000
TRAF2 expression Z-Score [7]: 2.2919
